Experiment: HPLC sedimentation assay of fibril thermodynamic stability
Format: physicochemical
Conditions: from Cr (Ka = 1/Cr), PBS pH 7.4, 25 °C

wild-type: wild-type amyloid-β 40-residue peptide (Aβ40), made by Fmoc solid-phase synthesis
ΔG (free energy of association): -7.2 ± 0.2 kcal/mol

Reference: paper PMC4654632 (Journal of molecular biology, 2012)
